What was measured:
[1] = molecular target: Caulobacter crescentus Hfq (Caulobacter crescentus); assay: crystal structure; hanging-drop vapor diffusion; Cc Hfq at 7 mg/mL; 0.2 M sodium thiocyanate, 17% PEG 3350; 2.15 Å; four hexamers in the asymmetric unit, space group P4_(3)
Ec Hfq (Hfq102) [2] = molecular target: T1, Ec Hfq (Hfq102) (Escherichia coli, UniProt P0A6X3 1-102); assay: EMSA; Hill n 2.2; EMSA: 34 mM Tris-HCl pH 7.5, 50 mM NaCl, 50 mM KCl, 50 mM NH4Cl, 11.4 mM EDTA, 12% glycerol, 30 C, 30 min, ~1 nM 32P-RNA, Kd in Hfq6; anisotropy: 10 mM Tris-HCl; conditions: protein: recombinant; tags: untagged; chain copies: 6; label: 32P
Ec Hfq (Hfq102) [3] = molecular target: T1, Ec Hfq (Hfq102); assay: EMSA; Hill n 13; EMSA: 34 mM Tris-HCl pH 7.5, 50 mM NaCl, 50 mM KCl, 50 mM NH4Cl, 11.4 mM EDTA, 12% glycerol, 30 C, 30 min, ~1 nM 32P-RNA, Kd in Hfq6; anisotropy: 10 mM Tris-HCl; conditions: protein: recombinant; tags: untagged; chain copies: 6; label: 32P; folded
EcCc Hfq [4] = molecular target: T2, EcCc Hfq (Escherichia coli / Caulobacter …, UniProt P0A6X3 1-67+B8GW92:71-82, internal_change); assay: EMSA; Hill n 1.0; EMSA: 34 mM Tris-HCl pH 7.5, 50 mM NaCl, 50 mM KCl, 50 mM NH4Cl, 11.4 mM EDTA, 12% glycerol, 30 C, 30 min, ~1 nM 32P-RNA, Kd in Hfq6; anisotropy: 10 mM Tris-HCl; conditions: protein: recombinant; tags: untagged; chain copies: 6; label: 32P; folded
Cc78 [5] = molecular target: T3, Cc78 (Caulobacter crescentus NA1000, UniProt B8GW92 1-78, del79-82); assay: EMSA; Hill n 1.6; EMSA: 34 mM Tris-HCl pH 7.5, 50 mM NaCl, 50 mM KCl, 50 mM NH4Cl, 11.4 mM EDTA, 12% glycerol, 30 C, 30 min, ~1 nM 32P-RNA, Kd in Hfq6; anisotropy: 10 mM Tris-HCl; conditions: protein: recombinant; tags: untagged after self-cleaved intein; chain copies: 6; label: 32P; folded
T3 sequence: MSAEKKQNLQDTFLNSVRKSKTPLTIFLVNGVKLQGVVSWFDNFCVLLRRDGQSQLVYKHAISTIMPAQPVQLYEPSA

Ec65 [6] = molecular target: T4, Ec65 (Escherichia coli, UniProt P0A6X3 1-65, del66-102); assay: EMSA; Hill n 3.7; EMSA: 34 mM Tris-HCl pH 7.5, 50 mM NaCl, 50 mM KCl, 50 mM NH4Cl, 11.4 mM EDTA, 12% glycerol, 30 C, 30 min, ~1 nM 32P-RNA, Kd in Hfq6; anisotropy: 10 mM Tris-HCl; conditions: protein: recombinant; tags: untagged; chain copies: 6; label: 32P; folded
Ec65 [7] = molecular target: T4, Ec65; assay: EMSA; Hill n 2.4; EMSA: 34 mM Tris-HCl pH 7.5, 50 mM NaCl, 50 mM KCl, 50 mM NH4Cl, 11.4 mM EDTA, 12% glycerol, 30 C, 30 min, ~1 nM 32P-RNA, Kd in Hfq6; anisotropy: 10 mM Tris-HCl; conditions: protein: recombinant; tags: untagged; chain copies: 6; label: 32P; stem-loops
Cc78 [8] = molecular target: T3, Cc78; assay: EMSA; Hill n 2.5; EMSA: 34 mM Tris-HCl pH 7.5, 50 mM NaCl, 50 mM KCl, 50 mM NH4Cl, 11.4 mM EDTA, 12% glycerol, 30 C, 30 min, ~1 nM 32P-RNA, Kd in Hfq6; anisotropy: 10 mM Tris-HCl; conditions: protein: recombinant; tags: untagged after self-cleaved intein; chain copies: 6; label: 32P; stem-loops
EcCc Hfq [9] = molecular target: T2, EcCc Hfq; assay: EMSA; Hill n 8.7; EMSA: 34 mM Tris-HCl pH 7.5, 50 mM NaCl, 50 mM KCl, 50 mM NH4Cl, 11.4 mM EDTA, 12% glycerol, 30 C, 30 min, ~1 nM 32P-RNA, Kd in Hfq6; anisotropy: 10 mM Tris-HCl; conditions: protein: recombinant; tags: untagged; chain copies: 6; label: 32P; stem-loops
Ec Hfq (Hfq102) [10] = molecular target: T1, Ec Hfq (Hfq102); assay: EMSA; Hill n 11.9; EMSA: 34 mM Tris-HCl pH 7.5, 50 mM NaCl, 50 mM KCl, 50 mM NH4Cl, 11.4 mM EDTA, 12% glycerol, 30 C, 30 min, ~1 nM 32P-RNA, Kd in Hfq6; anisotropy: 10 mM Tris-HCl; conditions: protein: recombinant; tags: untagged; chain copies: 6; label: 32P; stem-loops
Ec Hfq (Hfq102) [11] = molecular target: T1, Ec Hfq (Hfq102); assay: EMSA; Hill n 4.4; EMSA: 34 mM Tris-HCl pH 7.5, 50 mM NaCl, 50 mM KCl, 50 mM NH4Cl, 11.4 mM EDTA, 12% glycerol, 30 C, 30 min, ~1 nM 32P-RNA, Kd in Hfq6; anisotropy: 10 mM Tris-HCl; conditions: protein: recombinant; tags: untagged; chain copies: 6; label: 32P
Ec65 [12] = molecular target: T4, Ec65; assay: EMSA; Hill n 1.0; EMSA: 34 mM Tris-HCl pH 7.5, 50 mM NaCl, 50 mM KCl, 50 mM NH4Cl, 11.4 mM EDTA, 12% glycerol, 30 C, 30 min, ~1 nM 32P-RNA, Kd in Hfq6; anisotropy: 10 mM Tris-HCl; conditions: protein: recombinant; tags: untagged; chain copies: 6; label: 32P; stem-loops
Cc78 [13] = molecular target: T3, Cc78; assay: EMSA; Hill n 3.5; EMSA: 34 mM Tris-HCl pH 7.5, 50 mM NaCl, 50 mM KCl, 50 mM NH4Cl, 11.4 mM EDTA, 12% glycerol, 30 C, 30 min, ~1 nM 32P-RNA, Kd in Hfq6; anisotropy: 10 mM Tris-HCl; conditions: protein: recombinant; tags: untagged after self-cleaved intein; chain copies: 6; label: 32P; stem-loops
Ec Hfq (Hfq102) [14] = molecular target: T1, Ec Hfq (Hfq102); assay: EMSA; Hill n 10.1; EMSA: 34 mM Tris-HCl pH 7.5, 50 mM NaCl, 50 mM KCl, 50 mM NH4Cl, 11.4 mM EDTA, 12% glycerol, 30 C, 30 min, ~1 nM 32P-RNA, Kd in Hfq6; anisotropy: 10 mM Tris-HCl; conditions: protein: recombinant; tags: untagged; chain copies: 6; label: 32P; stem-loops
EcCc Hfq [15] = molecular target: T2, EcCc Hfq; assay: EMSA; Hill n 30.2; EMSA: 34 mM Tris-HCl pH 7.5, 50 mM NaCl, 50 mM KCl, 50 mM NH4Cl, 11.4 mM EDTA, 12% glycerol, 30 C, 30 min, ~1 nM 32P-RNA, Kd in Hfq6; anisotropy: 10 mM Tris-HCl; conditions: protein: recombinant; tags: untagged; chain copies: 6; label: 32P; stem-loops
Cc78 [16] = molecular target: T3, Cc78; assay: EMSA; Hill n 1.2; EMSA: 34 mM Tris-HCl pH 7.5, 50 mM NaCl, 50 mM KCl, 50 mM NH4Cl, 11.4 mM EDTA, 12% glycerol, 30 C, 30 min, ~1 nM 32P-RNA, Kd in Hfq6; anisotropy: 10 mM Tris-HCl; conditions: protein: recombinant; tags: untagged after self-cleaved intein; chain copies: 6; label: 32P; stem-loops
Ec65 [17] = molecular target: T4, Ec65; assay: EMSA; Hill n 1.7; EMSA: 34 mM Tris-HCl pH 7.5, 50 mM NaCl, 50 mM KCl, 50 mM NH4Cl, 11.4 mM EDTA, 12% glycerol, 30 C, 30 min, ~1 nM 32P-RNA, Kd in Hfq6; anisotropy: 10 mM Tris-HCl; conditions: protein: recombinant; tags: untagged; chain copies: 6; label: 32P; stem-loops
EcCc Hfq [18] = molecular target: T2, EcCc Hfq; assay: EMSA; Hill n 1.8; EMSA: 34 mM Tris-HCl pH 7.5, 50 mM NaCl, 50 mM KCl, 50 mM NH4Cl, 11.4 mM EDTA, 12% glycerol, 30 C, 30 min, ~1 nM 32P-RNA, Kd in Hfq6; anisotropy: 10 mM Tris-HCl; conditions: protein: recombinant; tags: untagged; chain copies: 6; label: 32P; stem-loops
Ec Hfq (Hfq102) [19] = molecular target: T1, Ec Hfq (Hfq102); assay: EMSA; Hill n 1; Tris-glycine gel; EMSA: 34 mM Tris-HCl pH 7.5, 50 mM NaCl, 50 mM KCl, 50 mM NH4Cl, 11.4 mM EDTA, 12% glycerol, 30 C, 30 min, ~1 nM 32P-RNA, Kd in Hfq6; anisotropy: 10 mM Tris-HCl; conditions: protein: recombinant; tags: untagged; chain copies: 6; label: 32P; stem-loops
Ec65 [20] = molecular target: T4, Ec65; assay: EMSA; Hill n 3.1; EMSA: 34 mM Tris-HCl pH 7.5, 50 mM NaCl, 50 mM KCl, 50 mM NH4Cl, 11.4 mM EDTA, 12% glycerol, 30 C, 30 min, ~1 nM 32P-RNA, Kd in Hfq6; anisotropy: 10 mM Tris-HCl; conditions: protein: recombinant; tags: untagged; chain copies: 6; label: 32P; stem-loops
Ec Hfq (Hfq102) [21] = molecular target: T1, Ec Hfq (Hfq102); assay: EMSA; Hill n 4.1; EMSA: 34 mM Tris-HCl pH 7.5, 50 mM NaCl, 50 mM KCl, 50 mM NH4Cl, 11.4 mM EDTA, 12% glycerol, 30 C, 30 min, ~1 nM 32P-RNA, Kd in Hfq6; anisotropy: 10 mM Tris-HCl; conditions: protein: recombinant; tags: untagged; chain copies: 6; label: 32P; stem-loops
EcCc Hfq [22] = molecular target: T2, EcCc Hfq; assay: EMSA; Hill n 4.5; EMSA: 34 mM Tris-HCl pH 7.5, 50 mM NaCl, 50 mM KCl, 50 mM NH4Cl, 11.4 mM EDTA, 12% glycerol, 30 C, 30 min, ~1 nM 32P-RNA, Kd in Hfq6; anisotropy: 10 mM Tris-HCl; conditions: protein: recombinant; tags: untagged; chain copies: 6; label: 32P; stem-loops
Cc78 [23] = molecular target: T3, Cc78; assay: EMSA; Hill n 5.5; EMSA: 34 mM Tris-HCl pH 7.5, 50 mM NaCl, 50 mM KCl, 50 mM NH4Cl, 11.4 mM EDTA, 12% glycerol, 30 C, 30 min, ~1 nM 32P-RNA, Kd in Hfq6; anisotropy: 10 mM Tris-HCl; conditions: protein: recombinant; tags: untagged after self-cleaved intein; chain copies: 6; label: 32P; stem-loops

## Caulobacter crescentus Hfq (natural protein)
[1]
  stoichiometry N: 6

B1: cfa (structured_RNA)
RNA: GGUUGUUAAAGCUACGAUAAAUAUUAUGUUUUUACGGGGACAGGAUCGUUCCCGACUCACUAUGGAUAGUCAUUUCGGCAAGGGUUCCUCCUUUCCCUCUGUUCUACGUCGGAUUAUAGACUCGCGGUUUUUUCUGCGAGAUUUCUCACAAAGCCCAAAAAGCGUCUACGCUGUUUUAAGGUUCUGAUCACCGACCAGUGAUGGAGAAACUAUGAGUUCAUCGUGUAUAGAAGAAGUCAGUGUACCGGAUGACAAC
Ec Hfq (Hfq102) [2]
  Kd: 19 ± 0.5 nM

B2: RydC (structured_RNA)
RNA: GGCUUCCGAUGUAGACCCGUAUUCUUCGCCUGUACCACGGGUCGGUUUUAGUACAGGCGUUUUCUU
Ec Hfq (Hfq102) [3]
  Kd: 22.1 ± 0.2 nM
EcCc Hfq [4]
  Kd: 237 ± 34 nM
Cc78 [5]
  Kd: 167 ± 11 nM
Ec65 [6]
  Kd: 12.3 ± 0.4 nM

B3: DsrA (structured_RNA)
RNA: GGGAACACAUCAGAUUUCCUGGUGUAACGAAUUUUUUAAGUGCUUCUUGCUUAAGCAAGUUUCAUCCCGACCCCCUCAGGGUCGGGAUUUUUUU
Ec65 [7]
  Kd: 12.6 ± 1.9 nM
Cc78 [8]
  Kd: 62.2 ± 4.4 nM
EcCc Hfq [9]
  Kd: 42.5 ± 1 nM
Ec Hfq (Hfq102) [10]
  Kd: 21.1 ± 0.3 nM

B4: hns (structured_RNA)
RNA: GAACAAACCACCCCAAUAUAAGUUUGAGAUUACUACAAUGAGCGAAGCACUUAAAAUUCUGAACAACAUCCGUACUCUUCGUGCGCAGGCAAGAGAAUGUACACUUGAAACGCUGGAAGAA
Ec Hfq (Hfq102) [11]
  Kd: 19.7 ± 0.4 nM

B5: ChiX (structured_RNA)
RNA: GGGACACCGUCGCUUAAAGUGACGGCAUAAUAAUAAAAAAAUGAAAUUCCUCUUUGACGGGCCAAUAGCGAUAUUGGCCAUUUUUUU
Ec65 [12]
  Kd: 95 ± 27 nM
Cc78 [13]
  Kd: 32.4 ± 0.4 nM
Ec Hfq (Hfq102) [14]
  Kd: 20.3 ± 0.4 nM
EcCc Hfq [15]
  Kd: 35.8 ± 0.4 nM

B6: R133 (structured_RNA)
RNA: GGAGCCCUUUCGGGCGUUUCCUCCCAAUGACUCGGCCGCCCUCUUCUCCUGGAGGGCGGCCGUUCUUUU
Cc78 [16]
  Kd: 242 ± 17 nM
Ec65 [17]
  Kd: 21.6 ± 1.3 nM
EcCc Hfq [18]
  Kd: 232 ± 46 nM
Ec Hfq (Hfq102) [19]
  Kd: 14.7 ± 1.3 nM

B7: RybB (structured_RNA)
RNA: GGCCACUGCUUUUCUUUGAUGUCCCCAUUUUGUGGAGCCCAUCAACCCCGCCAUUUCGGUUCAAGGUUGAUGGGUUUUUU
Ec65 [20]
  Kd: 27.1 ± 0.9 nM
Ec Hfq (Hfq102) [21]
  Kd: 21.5 ± 2 nM
EcCc Hfq [22]
  Kd: 37.3 ± 6.2 nM
Cc78 [23]
  Kd: 68.1 ± 1.9 nM
